Data: publication doi:10.1101/2024.07.10.602929 (bioRxiv, 2024)
Where no end group is shown, it is not given here. [ ]: non-standard residue; d: D form. The star is where a group is joined. Biotin = O=C1N[C@H]2[C@H](CS[C@H]2CCCCC(=O)*)N1; pY = N[C@@H](Cc1ccc(OP(=O)(O)O)cc1)C(=O)O

B1: EGFR LIR2 peptide phosphorylated at Y1197 (peptide, UniProt P00533 1190-1210, looked up)
peptide: Biotin-STAENAE[pY]LRVAPQSSEFIGA
notes: EGFR residues 1190-1210 (LIR2); also called LIR2 pY1197; source: synthetic peptide, bought: CASLO (≥95% purity)
B2: EGFR LIR1 peptide (EGFR residues 1076–1099), N-terminally biotinylated (peptide)
peptide: Biotin-ALTEDSIDDTFLPVPEYINQSVPK
notes: Epidermal growth factor receptor (EGFR), residues 1076-1099 of the regulatory C-terminal domain, core LIR FLPV at 1086-1089; also called EGFR LIR1_(1076–1099); source: synthetic peptide, bought: CASLO (≥95% purity)
B3: EGFR LIR2 peptide (EGFR residues 1190–1210), N-terminally biotinylated (peptide, UniProt P00533 1190-1210, looked up)
peptide: Biotin-STAENAEYLRVAPQSSEFIGA
notes: Epidermal growth factor receptor (EGFR), residues 1190-1210, core LIR YLRV at 1197-1200; source: synthetic peptide, bought: CASLO (≥95% purity)
B4: PCM1 LIR peptide (pericentriolar material 1 protein residues 1954-1968), N-terminally biotinylated (peptide, UniProt Q15154 1954-1968, looked up)
peptide: Biotin-ISQKSDEEDFVKVED
notes: Pericentriolar material 1 protein (PCM1), LIR motif, residues 1954-1968; source: synthetic peptide, bought: CASLO (≥95% purity)
B5: EGFR LIR1 peptide phosphorylated at Y1092 (peptide, UniProt P00533 1076-1099, looked up)
peptide: Biotin-ALTEDSIDDTFLPVPE[pY]INQSVPK
notes: EGFR residues 1076-1099 (LIR1); also called phosphorylated (p) EGFR LIR1 variant pY1092; source: synthetic peptide, bought: CASLO (≥95% purity)

What was measured:
Experiment in all cases: BLI; Octet Red 96; N-terminally biotinylated peptides immobilised on High Precision Streptavidin (SAX) biosensors; purified hATG8 proteins as analyte in increasing concentrations; steady-state evaluation, one-site binding model; individual measurements unless stated otherwise
Details in all cases: both partners purified
GABARAPL1 = biological target: T1, GABARAPL1 (human, UniProt Q9H0R8 1-117)
T1 construct: GABARAPL1, human, full-length (unprocessed) version; source: E. coli BL21(DE3), pGEX-4-T2, purified (Glutathione Sepharose 4B, thrombin cleavage, SEC)

GABARAPL2 = biological target: T2, GABARAPL2 (human, UniProt P60520 1-117)
T2 construct: GABARAPL2, human, full-length (unprocessed) version; source: E. coli BL21(DE3), pGEX-4-T2, purified (Glutathione Sepharose 4B, thrombin cleavage, SEC)

[1] = biological target: T3, GABARAP (γ-aminobutyric acid type A receptor-associated protein) (human, UniProt O95166 1-117)
T3 construct: GABARAP, human, full-length (unprocessed) version; For the NMR titrations the same construct was made 15N-labelled in M9 minimal medium; also called 15N-GABARAP; free GABARAP; source: E. coli BL21(DE3), pGEX-4-T2, purified (Glutathione Sepharose 4B, thrombin cleavage, SEC)

LC3A = biological target: T4, LC3A (human, UniProt Q9H492 1-121)
T4 construct: LC3A, human, full-length (unprocessed) version; also called MAP1LC3 (microtubule-associated protein 1 light chain 3) A; source: E. coli BL21(DE3), pGEX-4-T2, purified (Glutathione Sepharose 4B, thrombin cleavage, SEC)

GABARAPL1 Y49A/L50A = biological target: T5, GABARAPL1 Y49A/L50A (human, UniProt Q9H0R8 1-117, Y49A | L50A)
T5 construct: GABARAPL1, human, full-length (unprocessed) version with Y49A and L50A; everywhere else Y49A/L50A; also called GABARAPL1_(Y49A/L59A); source: E. coli BL21(DE3), pGEX-4-T2, purified (Glutathione Sepharose 4B, thrombin cleavage, SEC)

GABARAP Y49A/L50A = biological target: T6, GABARAP Y49A/L50A (human, UniProt O95166 1-117, Y49A | L50A)
T6 construct: GABARAP, human, full-length (unprocessed) version with Y49A and L50A; source: E. coli BL21(DE3), pGEX-4-T2, purified (Glutathione Sepharose 4B, thrombin cleavage, SEC)
T6 sequence (O95166 whole entry Y49A/L50A): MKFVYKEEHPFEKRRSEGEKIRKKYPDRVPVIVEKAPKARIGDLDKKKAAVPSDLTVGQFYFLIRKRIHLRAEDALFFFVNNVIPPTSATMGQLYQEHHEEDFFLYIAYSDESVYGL

T2 sequence (P60520 whole entry): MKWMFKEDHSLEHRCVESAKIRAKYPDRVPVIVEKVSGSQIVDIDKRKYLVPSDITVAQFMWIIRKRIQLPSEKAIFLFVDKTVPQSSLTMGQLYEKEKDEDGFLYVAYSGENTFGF
T3 sequence (O95166 whole entry): as the sequence (O95166 whole entry Y49A/L50A) above, with A49Y, A50L counted along it
T5 sequence (Q9H0R8 whole entry Y49A/L50A): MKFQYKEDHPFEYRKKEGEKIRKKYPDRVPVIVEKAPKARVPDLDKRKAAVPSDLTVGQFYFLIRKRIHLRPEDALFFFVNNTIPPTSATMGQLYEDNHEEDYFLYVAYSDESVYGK

Row | Binder | binding result (GABARAPL1) | binding result (GABARAPL2) | binding result (LC3A) | also measured
1 | B1 | binds | binds | binds | binding result [1]: binds
2 | B2 |  |  |  | Kd (GABARAPL1): 29.7 µM
3 | B3 | binds | binds | binds | 
4 | B4 |  |  |  | Kd (GABARAPL1 Y49A/L50A): 273 µM; Kd [1]: 4.2 µM; Kd (GABARAP Y49A/L50A): 99.2 µM
5 | B5 |  | binds | binds | 
